Measured values from patent publication US20250235545A1, “POLYPEPTIDE CONJUGATE AND USE THEREOF” (SHANGHAI CHIXI BIOMEDICAL TECHNOLOGY CO., LTD, priority 2024, published 2025).
In brackets after ≈: the same amount, converted by molar mass. Where two headings read alike, the source gives them in different places. Where a SMILES comes first, the peptide text is derived from it. The star is where a group is joined. NEt(2-(20S-CPT-7-yl)ethyl) = CCN(CCc1c2c(nc3ccccc13)-c1cc3c(c(=O)n1C2)COC(=O)[C@]3(O)CC)*; Belotecan = CC[C@@]1(O)C(=O)OCc2c1cc1n(c2=O)Cc2c-1nc1ccccc1c2CCN(C(C)C)*; X8 = CC[C@@]1(O)C(=O)OCc2c1cc1n(c2=O)Cc2c-1nc1ccccc1c2CCN(C1CCCC1)*; X1 = CC[C@@]1(O)C(=O)OCc2c1cc1n(c2=O)Cc2c-1nc1ccccc1c2CCN(C1CCC1)*; Propanoyl(3-maleimido) = O=C1C=CC(=O)N1CCC(=O)*; PEG6 = NCCOCCOCCOCCOCCOCCOCCC(=O)O

What was measured:
A2780 (ovarian cancer) = assay: cells; format: cell-based; details: CCK8, 48 h; Table 1
How it was run: (§1)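 Cells seeded at 5,000 cells/well in RPMI1640 or DMEM high-glucose with 10% FBS and 1 mM sodium pyruvate, exposed to graded drug concentrations for 48 h at 37° C., 5% CO2; 0.1% DMSO controls. CCK8 added for ~2 h, absorbance 450 nm; survival rates and IC50 calculated.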

[1] = test system: A549 (non-small cell lung cancer); assay: cells; format: cell-based; details: CCK8, 48 h; Table 1
How it was run: as §1

SJSA-1 (sarcoma tissue) = assay: cells; format: cell-based; details: CCK8, 48 h; Table 1
How it was run: as §1

[2] = test system: SKBR3 (breast cancer tissue); assay: cells; format: cell-based; details: CCK8, 48 h; Table 1
How it was run: as §1

[3] = test system: sarcoma SJSA-1 tumor model; details: Table 2
How it was run: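 SJSA-1 cells (2×10^7, DMEM/10% FBS, under 15 passages) implanted subcutaneously in right chest of female BALB/c nude mice, 6-8 weeks old. At ≥100 mm^3, randomized three per group; dosing once weekly for three weeks, saline as control, day 1 = first treatment.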

[4] = test system: colo320 colorectal cancer tumor model
How it was run: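 Female BALB/c nude mice, 6–8 weeks old, received 7.5×10^6 colo320 cells subcutaneously in the right chest. Once tumors reached at least 120 mm^3 they were randomized three per group. Treatment with test agents or saline control was given once weekly for four weeks.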

[5] = MTD determination in mice (Examples 27, 36, 44); format: in vivo; details: female, mouse, in vivo; mice, monitored for 14 d; Table 4
Source text: Test animals: 6-8 weeks old mice, all female; mice were grouped randomly, with six mice in each group, administered with drugs at different concentration gradients separately and monitored for 14 d. A mouse was euthanized at a loss of 20% of its initial weight and deemed to have died of poisoning.

[6] = Tumor homogenate activation efficiency, ovarian cancer tissue (Examples 28, 37); format: in vitro ADME; details: pH 5.0, 37° C., 2 h; Table 5
Method: (§2) Buffer preparation: 50 mM PH buffer (MES), 250 mM NaCl, pH adjusted to 5.0 with 0.5 M of sodium hydroxide.
(§3) The polypeptide conjugate was prepared into a 1 mg/ml solution with pH 5.0 buffer, 100 μg of tumor tissue homogenate was added, (the tumor tissue homogenate was the homogenate of tumor tissues prepared with a Jingxin F6/10 handheld homogenizer), and the solution was placed at 37° C. for 2 h. The tumor tissue homogenate could effectively activate the polypeptide conjugate and release Belotecan, and the activation efficiencies of the drugs in tumor tissues were compared by high-performance liquid chromatography (HPLC) allowing determination of a decrease in the compounds and an increase in Belotecan:
(§4) Release percentage=peak area of Belotecan/total peak area of Belotecan and all other Belotecan-containing compounds
as §3, with “HPLC” for “high-performance liquid chromatography (HPLC)”, “Belotecan: […]” for “Belotecan:”

[7] = Tumor homogenate activation efficiency, sarcoma tissue (Examples 28, 37); format: in vitro ADME; details: pH 5.0, 37° C., 2 h; Table 5
Method: as §2, §3, §4
as §3, with “HPLC” for “high-performance liquid chromatography (HPLC)”, “Belotecan: […]” for “Belotecan:”

[8] = Tumor homogenate activation efficiency, breast cancer tissue (Examples 28, 37); format: in vitro ADME; details: pH 5.0, 37° C., 2 h; Table 5
Method: as §2, §3, §4
as §3, with “HPLC” for “high-performance liquid chromatography (HPLC)”, “Belotecan: […]” for “Belotecan:”

[9] = Tumor homogenate activation efficiency, non-small cell lung cancer tissue (Examples 28, 37); format: in vitro ADME; details: pH 5.0, 37° C., 2 h; Table 5
Method: as §2, §3, §4
as §3, with “HPLC” for “high-performance liquid chromatography (HPLC)”, “Belotecan: […]” for “Belotecan:”

[10] = Tumor homogenate activation efficiency, small cell lung cancer tissue (Example 28); format: in vitro ADME; details: pH 5.0, 37° C., 2 h; Table 5
Method: as §2, §3, §4

[11] = Homogenate activation efficiency, heart tissue (Examples 28, 37); format: in vitro ADME; details: pH 5.0, 37° C., 2 h; Table 5
[12] = test system: sarcoma SJSA-1 tumor model; assay: Efficacy in animal model of sarcoma SJSA-1, 30 mg/kg once a week for two weeks (Example 40); format: in vivo, BALB/c mice; details: 30 mg/kg once a week for two weeks; Day 14
Method: Test objective: To further compare the antitumor efficacy of different polypeptide Linkers in an animal tumor model of sarcoma SJSA-1.
(§5) Test drug: Polypeptide conjugate and normal saline control group.
The control group was administered normal saline. Administration was performed once a week for two weeks.

[13] = test system: A2780 ovarian cancer tumor model; assay: Efficacy in animal model of A2780 ovarian cancer, 30 mg/kg once a week for two weeks (Example 41); format: in vivo, BALB/c mice; details: Day 14
Method: Test objective: To further compare the antitumor efficacy of different polypeptide Linkers in an animal tumor model of A2780 ovarian cancer.
as §5
8×10^6 corresponding cells were injected into right axillas of nude mice subcutaneously. […] The negative control group was administered normal saline. Administration was performed once a week for two weeks.

[14] = 15 mg/kg once a week for three weeks
[15] = 45 mg/kg once a week for three weeks
[16] = 15 mg/kg once a week for four weeks, Table 3
[17] = 45 mg/kg once a week for four weeks, Table 3
[18] = Table 14 (Example 43), dose 45 mg/kg, once a week for four weeks, BALB/c mice
[19] = Table 13 (Example 42), dose 45 mg/kg, once a week for four weeks, BALB/c mice

| SMILES | IC50 A2780 (ovarian cancer) (A2780 (ovarian cancer)) | IC50 A549 (non-small cell lung cancer) [1] | IC50 SJSA-1 (sarcoma tissue) (SJSA-1 (sarcoma tissue)) | IC50 SKBR3 (breast cancer tissue) [2] | Mouse weight (%) [3, 14] | SJSA-1 (sarcoma tissue) mean tumor volume (mm^3) [3, 14] | SJSA-1 (sarcoma) Growth rate (%) [3, 14] | Mouse weight (%) [3, 15] | SJSA-1 (sarcoma tissue) mean tumor volume (mm^3) [3, 15] | SJSA-1 (sarcoma) Growth rate (%) [3, 15] | Mouse weight (%) [4, 16] | Mouse weight (%) [4, 17] | Mouse weight (%) [4, 18] | MTD at 14 d [5] | Percentage of release efficiency (%) Ovarian cancer tissue (A2780) [6] | Percentage of release efficiency (%) Sarcoma tissue (SJSA1) [7] | Percentage of release efficiency (%) Breast cancer tissue (SKBR3) [8] | Percentage of release efficiency (%) Non-small cell lung cancer tissue (A549) [9] | Percentage of release efficiency (%) Small cell lung cancer tissue (NCI-H841) [10] | Percentage of release efficiency (%) Heart tissue [11] | other results |
| --- | --- | --- | --- | --- | --- | --- | --- | --- | --- | --- | --- | --- | --- | --- | --- | --- | --- | --- | --- | --- | --- |
| CCN(CCc1c2c(nc3ccccc13)-c1cc3c(c(=O)n1C2)COC(=O)[C@]3(O)CC)C(=O)CNC(=O)[C@H](CCCCN)NC(=O)[C@H](C)NC(=O)[C@H](C)NC(=O)CCOCCOCCOCCOCCOCCOCCNC(=O)CCN1C(=O)C=CC1=O [MI-6PEG-AAKG-D2] ({Propanoyl(3-maleimido)-PEG6}-AAKG-{NEt(2-(20S-CPT-7-yl)ethyl)}) | 0.80 µg/mL (≈ 0.649 µM) | 1.32 µg/mL (≈ 1.07 µM) | 0.49 µg/mL (≈ 0.397 µM) | 2.62 µg/mL (≈ 2.12 µM) | +27% | 1215.6 mm^3 | 980.32% | +31% | 945.6 mm^3 | 791.30% | +27% | +24% | +24% | 350 mg/kg | 85.8% | 76.6% | 69.5% | 69.8% | 68% | 1.5% | colo320 (colorectal cancer cell) growth rate (%) [4, 16]: 943.33%; colo320 (colorectal cancer cell) mean tumor volume (mm^3) [4, 16]: 1044.8 mm^3; colo320 (colorectal cancer cell) growth rate (%) [4, 17]: 470.58%; colo320 (colorectal cancer cell) mean tumor volume (mm^3) [4, 17]: 521.2 mm^3; colo320 (colorectal cancer cell) growth rate (%) [4, 18]: 470.58%; colo320 (colorectal cancer cell) mean tumor volume (mm^3) [4, 18]: 521.2 mm^3 |
| CC[C@@]1(O)C(=O)OCc2c1cc1n(c2=O)Cc2c-1nc1ccccc1c2CCN(C(=O)CNC(=O)[C@H](CC(N)=O)NC(=O)[C@H](C)NC(=O)[C@H](C)NC(=O)CCOCCOCCOCCOCCOCCOCCNC(=O)CCN1C(=O)C=CC1=O)C1CCC1 [MI-6PEG-AANG-D7] ({Propanoyl(3-maleimido)-PEG6}-AANG-X1) | 1.21 µg/mL (≈ 0.972 µM) | 1.89 µg/mL (≈ 1.52 µM) | 0.53 µg/mL (≈ 0.426 µM) | 2.64 µg/mL (≈ 2.12 µM) | +31% |  |  | +26% |  |  | +26% | +31% | +31% | 250 mg/kg | 84.5% | 64.3% | 78.8% | 77% | 66.1% | 2% | Mouse weight (%) on Day 14 [12]: +1.6%; Mouse weight (%) on Day 14 [13]: +15.6% |
| CC[C@@]1(O)C(=O)OCc2c1cc1n(c2=O)Cc2c-1nc1ccccc1c2CCN(C(=O)CNC(=O)[C@H](Cc1ccccc1)NC(=O)CNC(=O)CNC(=O)CCOCCOCCOCCOCCOCCOCCNC(=O)CCN1C(=O)C=CC1=O)C1CCCC1 [MI-6PEG-GGFG-D8] ({Propanoyl(3-maleimido)-PEG6}-GGFG-X8) | 3.77 µg/mL (≈ 2.98 µM) | 4.93 µg/mL (≈ 3.9 µM) | 2.35 µg/mL (≈ 1.86 µM) | 11.26 µg/mL (≈ 8.91 µM) | +19% |  |  |  |  |  |  | +17% |  | 250 mg/kg | 76% | 72.7% | 81.2% | 77.5% | 66.7% | 3.1% |  |
| CC[C@@]1(O)C(=O)OCc2c1cc1n(c2=O)Cc2c-1nc1ccccc1c2CCN(C(=O)CNC(=O)[C@H](CC(N)=O)NC(=O)[C@H](C)NC(=O)[C@H](C)NC(=O)CCOCCOCCOCCOCCOCCOCCNC(=O)CCN1C(=O)C=CC1=O)C1CCCC1 [MI-6PEG-AANG-D8] ({Propanoyl(3-maleimido)-PEG6}-AANG-X8) | 1.21 µg/mL (≈ 0.961 µM) | 2.51 µg/mL (≈ 1.99 µM) | 0.87 µg/mL (≈ 0.691 µM) | 2.55 µg/mL (≈ 2.02 µM) | +35% |  |  |  |  |  |  | +21% |  | 400 mg/kg | 70.1% | 71.1% | 70.9% | 85.1% | 80.8% | 3% |  |
| CC[C@@]1(O)C(=O)OCc2c1cc1n(c2=O)Cc2c-1nc1ccccc1c2CCN(C(=O)CNC(=O)[C@H](Cc1ccccc1)NC(=O)CNC(=O)CNC(=O)CCOCCOCCOCCOCCOCCOCCNC(=O)CCN1C(=O)C=CC1=O)C(C)C [MI-6PEG-GGFG-Belotecan] ({Propanoyl(3-maleimido)-PEG6}-GGFG-Belotecan) | 2.60 µg/mL (≈ 2.1 µM) | 3.61 µg/mL (≈ 2.92 µM) | 1.50 µg/mL (≈ 1.21 µM) | 6.15 µg/mL (≈ 4.97 µM) | +29% | 1453.1 mm^3 | 1257.35% | +31% | 979.5 mm^3 | 844.40% | +27% | +34% | +34% | 180 mg/kg | 81.5% | 83.4% | 67.7% | 72.7% | 77.3% | 1.9% | colo320 (colorectal cancer cell) growth rate (%) [4, 16]: 1057.73%; colo320 (colorectal cancer cell) mean tumor volume (mm^3) [4, 16]: 1171.5 mm^3; colo320 (colorectal cancer cell) growth rate (%) [4, 17]: 525.03%; colo320 (colorectal cancer cell) mean tumor volume (mm^3) [4, 17]: 581.5 mm^3; Mouse weight (%) [4, 19]: +34%; colo320 (colorectal cancer cell) growth rate (%) [4, 19]: 525.03%; colo320 (colorectal cancer cell) mean tumor volume (mm^3) [4, 19]: 581.5 mm^3; colo320 (colorectal cancer cell) growth rate (%) [4, 18]: 525.03%; colo320 (colorectal cancer cell) mean tumor volume (mm^3) [4, 18]: 581.5 mm^3 |
